Results taken from patent US20170190781A1 (Kyowa Kirin, published 2017).
Numbering of substitutions follows the chain as printed. Numbers in names are those of the source.

T1: death domain-deleted human DR3 (hDR3ΔDD) on CHO-K1 cells (human, UniProt Q93038 25-345)
T1 construct: also called CHO/DR3; human DR3-expressing CHO cells
T1 sequence: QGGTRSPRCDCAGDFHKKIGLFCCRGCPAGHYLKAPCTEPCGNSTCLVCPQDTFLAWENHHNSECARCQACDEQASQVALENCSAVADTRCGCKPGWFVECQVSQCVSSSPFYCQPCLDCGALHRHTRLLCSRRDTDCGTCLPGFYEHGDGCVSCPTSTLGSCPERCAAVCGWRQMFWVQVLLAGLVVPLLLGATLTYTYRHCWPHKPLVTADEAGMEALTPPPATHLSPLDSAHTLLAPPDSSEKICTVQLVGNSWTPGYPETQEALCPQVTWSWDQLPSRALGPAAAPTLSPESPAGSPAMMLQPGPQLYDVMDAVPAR

B1: anti-DR3 monoclonal antibody 142A2 Fab fragment (Fab, V domains shown)
VH: QVQLQQSGPGLVKPSQTLSLTCAISGDSVSGYSAAWNWIRQSPSRGLEWLGRTYYRSKWYNDYAVSVKSRITINPDTSKNQFSLQLNSVTPEDTAVYYCARDYYGSESYYNGGYYYYGMDVWGQGTTVTVSS
VL: AIQLTQSPSSLSASVGDRVTITCRASPGISSALAWYQQKPGKAPKLLMYDASSLESGVPSRFSGSGSGTDFTLTISSLQPEDFATYYCQQFNDYPLTFGGGTKVEIK
notes: Fab made with the Pierce Fab Preparation Kit from antibody 142A2; also called parental 142A2
B2: 142A2-A51E/L54Q Fab (Fab, V domains shown)
VH: B1 VH
VL: B1 VL with A51E, L54Q
notes: Only the variable domains are written; also called A2-EQ
B3: 142A2-G112R Fab (Fab, V domains shown)
VH: B1 VH with G112R
VL: B1 VL
notes: Only the variable domains are written
B4: 142A2-G112R/A51E/L54Q Fab (Fab, V domains shown)
VH: B1 VH with G112R
VL: B1 VL with A51E, L54Q
notes: Only the variable domains are written; also called A2-EQR; 142A2-EQR
B5: 142A2-A51E Fab (Fab, V domains shown)
VH: B1 VH
VL: B1 VL with A51E
notes: Only the variable domains are written; also called A2-E
B6: 142A2-G112R/L54Q Fab (Fab, V domains shown)
VH: B1 VH with G112R
VL: B1 VL with L54Q
notes: as for B3
B7: 142A2-G112R/A51E Fab (Fab, V domains shown)
VH: B1 VH with G112R
VL: B1 VL with A51E
notes: Only the variable domains are written; also called A2-ER
B8: 142A2-L54Q Fab (Fab, V domains shown)
VH: B1 VH
VL: B1 VL with L54Q
notes: Only the variable domains are written; also called A2-Q
B9: anti-DR3 monoclonal antibody 142S38B Fab fragment (Fab, V domains shown)
VH: EVQLLESGGGLVQPGGSLRLSCAASGFTVSRYAMSWVRQAPGKGLEWVSAISDSGGRTYYADSVMGRFTISRDTSKNTLYLQMNSLRAEDTAVYFCAKEFGDYLDYWGQGTLVTVSS
VL: EIVLTQSPATLSLSPGERATLSCRASQSVSSYLAWYQQKPGQAPRLLIYDASNRATGIPARFSGSGSGTDFTLTISSLEPEDFAVYYCQQRSNWWTFGQGTKVEIK
notes: Fab made with the Pierce Fab Preparation Kit from antibody 142S38B; Human kappa light chain; Only the variable domains are written
B10: anti-DR3 monoclonal antibody 142S38B (hybridoma supernatant) (antibody, V domains shown)
VH: B9 VH
VL: B9 VL
notes: Human antibody from a KM mouse hybridoma, detected with anti-human IgG-PE; Kappa light chain

Assays:
[1] = biological target: T2, recombinant human DR3-human IgG1-Fc (soluble human DR3(EC)-hG1Fc) (human); test: SPR, Fab on immobilised DR3-Fc, same as Example 5; n = 6
T2 construct: also called huDR3-huFc; hDR3(EC)-hG1Fc
Experimental: (§1) Fab antibody fragments of the above mentioned antibodies were obtained following the Pierce Fab Preparation Kit (Thermo Scientific Pierce No. 44985). All of the following manipulations were carried out using a Biacore® 3000 (manufactured by GE Healthcare Bio-Sciences). Recombinant huDR3-huFc protein was immobilized on a CM5 sensor chip (manufactured by GE Healthcare Bio-Sciences) by an amine coupling chemistry.
(§2) In particular, the kinetic assay was carried out by immobilizing on the chip approximately 2000 resonance unit (RU) of recombinant protein, in order to achieve a medium protein immobilization level. Thereafter, the anti-DR3 antibody Fab fragments, diluted from 12 nM concentration in five steps, were allowed to run at a flow rate of 30 μL/min onto the chip for 120 seconds. The dissociation time was 300 seconds and the binding curves were measured at 25° C.
(§3) Regeneration was performed with glycine-HCl, pH 1.5, 60 seconds. The raw data were double referenced by subtraction of the signals from a reference flow cell without captured ligand and a buffer blank. The sensorgram corresponding to each concentration was obtained. The analysis was carried out using a 1:1 Langmuir fit model, using the analysis software attached to the apparatus, Biacore® 3000 Evaluation software (manufactured by Biacore), thereby calculating an association rate constant ka [1/Ms] and a dissociation rate constant kd [1/s] for the recombinant huDR3-huFc protein.

[2] = biological target: T2, recombinant human DR3-human IgG1-Fc …; test: SPR (Biacore 3000), huDR3-huFc on CM5, Fab as analyte; average KD, n = 2
Experimental: as §1, §2
(§4) Regeneration was performed with glycine-HCl, pH 1.5, 60 seconds. The raw data were double referenced by subtraction of the signals from a reference flow cell without captured ligand and a buffer blank. The sensorgram corresponding to each concentration was obtained. […]

[3] = biological target: T2, recombinant human DR3-human IgG1-Fc …; test: SPR (Biacore 3000), huDR3-huFc amine-coupled on CM5, Fab 12 to 0.375 nM, 1:1 Langmuir fit, 25 C; run 1
Experimental: as §1, §2, §3

[4] = biological target: T2, recombinant human DR3-human IgG1-Fc …; test: SPR (Biacore 3000), huDR3-huFc amine-coupled on CM5, Fab 12 to 0.375 nM, 1:1 Langmuir fit, 25 C; run 2
Experimental: as §1, §2, §3

[5] = biological target: T2, recombinant human DR3-human IgG1-Fc …; test: SPR, Fab on immobilised DR3-Fc
Experimental: as §1, §2, §3
Target sequence in this assay (chain, as listed by the source limits assumed): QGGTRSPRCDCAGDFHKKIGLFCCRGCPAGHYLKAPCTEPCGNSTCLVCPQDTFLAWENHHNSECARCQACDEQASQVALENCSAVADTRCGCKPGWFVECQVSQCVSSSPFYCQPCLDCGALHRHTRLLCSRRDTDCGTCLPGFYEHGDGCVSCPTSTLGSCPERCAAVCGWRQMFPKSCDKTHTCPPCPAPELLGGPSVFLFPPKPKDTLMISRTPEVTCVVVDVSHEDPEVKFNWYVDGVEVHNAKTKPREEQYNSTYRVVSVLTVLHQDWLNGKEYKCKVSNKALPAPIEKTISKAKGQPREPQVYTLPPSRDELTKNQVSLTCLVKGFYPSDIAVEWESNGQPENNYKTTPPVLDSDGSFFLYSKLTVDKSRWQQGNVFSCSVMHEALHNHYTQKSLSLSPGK

[6] = biological target: T2, recombinant human DR3-human IgG1-Fc …; test: SPR, Fab on immobilised DR3-Fc, same as Example 5; n = 23
Experimental: as §1, §2, §4

[7] = biological target: T2, recombinant human DR3-human IgG1-Fc …; test: SPR, Fab on immobilised DR3-Fc, same as Example 5; n = 3
Experimental: as §1, §2, §3

[8] = biological target: T1, death domain-deleted human DR3 …; test: flow cytometry of hybridoma supernatant on human DR3-expressing CHO cells, anti-human IgG-PE
Experimental: Supernatants of multiwell plates were screened by flow cytometric binding to human DR3-expressing CHO cells (hereinafter described as CHO/DR3, in case). Cells were incubated at 10,000/well in a 96-well round-bottom assay plate for 15 minutes at 4° C. with a neat supernatant of hybridoma. Cells were pelleted via centrifugation, and washed with 200 μL PBS/0.5% fetal calf serum. […] Cells were washed as described above, and resuspended in 200 μL PBS/0.5% fetal calf serum; >5000 events acquired on an LSR Fortessa flow cytometer (Beckton Dickinson). Results were analyzed using FlowJo (Treestar Inc.).

Binder	Kd [1] [nM]	fold increase of binding affinity against parental 142A2 [5] [fold]	Kd [7] [nM]	further results
B1	3.99			Kd [2]: 2.65 nM; Kd [3]: 3.79 nM; Kd [4]: 1.5 nM
B2		~1.9		Kd [6]: 2.13 nM
B3			3.19	
B4		~2.2	1.78	
B5	2.2	~1.8		
B6			2.37	
B7	1.96	~2		
B8		~1.2	3.04	
B9			0.13	Kd [2]: 0.194 nM; Kd [3]: 0.225 nM; koff [3]: 5.37e-05 s⁻¹; kon [3]: 239000 M⁻¹ s⁻¹; Kd [4]: 0.162 nM; koff [4]: 5.46e-05 s⁻¹; kon [4]: 337000 M⁻¹ s⁻¹
B10				binding result [8]: binds
